Data taken from patent publication US8461305B2, “L-fucose α1→6 specific lectin” (J-Oil Mills, Inc., priority 2008, dated 2013).

T1: α-fetoprotein (mainly L1-type sugar chain) (Homo sapiens, UniProt P02771)
T1 construct: derived from human umbilical cord blood serum; from tissue; host or cells: human umbilical cord blood serum
T1 sequence (P02771 19-609): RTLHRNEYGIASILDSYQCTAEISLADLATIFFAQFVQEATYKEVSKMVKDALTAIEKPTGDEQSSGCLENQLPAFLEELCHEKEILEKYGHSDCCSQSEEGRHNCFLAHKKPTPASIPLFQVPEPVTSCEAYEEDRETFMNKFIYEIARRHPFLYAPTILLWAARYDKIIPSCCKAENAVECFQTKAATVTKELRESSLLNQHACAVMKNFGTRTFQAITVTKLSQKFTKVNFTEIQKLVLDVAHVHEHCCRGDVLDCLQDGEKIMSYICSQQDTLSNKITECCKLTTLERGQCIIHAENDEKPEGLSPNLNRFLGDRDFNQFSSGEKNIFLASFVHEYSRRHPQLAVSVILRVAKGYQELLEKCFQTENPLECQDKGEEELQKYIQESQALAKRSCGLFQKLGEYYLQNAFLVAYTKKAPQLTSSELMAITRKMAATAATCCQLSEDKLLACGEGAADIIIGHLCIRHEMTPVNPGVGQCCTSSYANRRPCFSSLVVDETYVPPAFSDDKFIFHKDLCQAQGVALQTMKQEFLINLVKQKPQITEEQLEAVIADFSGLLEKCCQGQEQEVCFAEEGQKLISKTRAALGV

T2: α-fetoprotein-L3 (Homo sapiens, UniProt P02771)
T2 construct: prepared from the culture supernatant of human liver cancer cells; endogenous in cells
T2 sequence (P02771 19-609): T1 sequence (P02771 19-609)

B1: Aleuria aurantia lectin (protein)
chain: PTEFLYTSKIAAISWAATGGRQQRVYFQDLNGKIREAQRGGDNPWTGGSSQNVIGEAKLFSPLAAVTWKSAQGIQIRVYCVNKDNILSEFVYDGSKWITGQLGSVGVKVGSNSKLAALQWGGSESAPPNIRVYYQKSNGSGSSIHEYVWSGKWTAGASFGSTVPGTGIGATAIGPGRLRIYYQATDNKIREHCWDSNSWYVGGFSASASAGVSIAAISWGSTPNIRVYWQKGREELYEAAYGGSWNTPGQIKDASRPTPSLPDTFIAANSSGNIDISVFFQASGVSLQQWQWISGKGWSIGAVVPTGTPAGW
B2: Lens culinaris agglutinin (protein)
chain 1: TETTSFSITKFSPDQKNLIFQGDGYTTKGKLTLTKAVKSTVGRALYSTPIHIWDRDTGNVANFVTSFTFVIDAPSSYNVADEFTFFIAPVDTKPQTGGGYLGVFNSKEYDKTSQTVAVEFDTFYNAAWDPSNKERHIGIDVNSIKSVNTKSWNLQNGERANVVIAFNAATNVLTVTLTYP
chain 2: VTSYTLNEVVPLKDVVPEWVRIGFSATTGAEFAAHEVHSWSFHSELGGTSSS

Assays:
[1] = system: rabbit erythrocytes; assay: hemagglutinating activity test, rabbit erythrocytes; type: cell-based; conditions: for hemagglutinating activity, titer (1.0 mg/ml): lectin 1.0 mg/ml
Source text: (§1) The sugar binding specificity of lectin also can be confirmed by using erythrocytes that can be specifically agglutinated by the lectin to investigate the sugar type that may inhibit the agglutination of the erythrocytes and the concentration thereof.
(§2) PTL and SRL were subjected to hagglutinating activity test for rabbit, equine, pig, sheep, human (A, B, O), and actinase E-treated rabbit erythrocytes.

[2] = system: equine erythrocytes; assay: hemagglutinating activity test, equine erythrocytes; type: cell-based
Source text: as §1, §2

[3] = system: pig erythrocytes; assay: hemagglutinating activity test, pig erythrocytes; type: cell-based; conditions: for hemagglutinating activity, titer (1.0 mg/ml): lectin 1.0 mg/ml
Source text: as §1, §2

[4] = system: sheep erythrocytes; assay: hemagglutinating activity test, sheep erythrocytes; type: cell-based; conditions: for hemagglutinating activity, titer (1.0 mg/ml): lectin 1.0 mg/ml
Source text: as §1, §2

[5] = system: human (A, B, O) erythrocytes; assay: hemagglutinating activity test, human (A, B, O) erythrocytes; type: cell-based; conditions: for hemagglutinating activity, titer (1.0 mg/ml): lectin 1.0 mg/ml
Source text: as §2

[6] = system: actinase E-treated rabbit erythrocytes; assay: hemagglutinating activity test, actinase E-treated rabbit erythrocytes; type: cell-based; conditions: for hemagglutinating activity, titer (1.0 mg/ml): lectin 1.0 mg/ml
Source text: as §1, §2

[7] = molecular target: T1, α-fetoprotein (mainly L1-type sugar chain); assay: detection of tumor marker sugar chain by ELISA; type: binding; conditions: α-fetoprotein from human umbilical cord blood serum, coated at 0.01 μg/ml
Source text: (§3) α-fetoprotein (hereinafter referred to as “AFP”) is a glycoprotein included in a blood serum having an N-linked sugar chain. Substantially no AFP exists in the blood serum of a healthy adult. On the other hand, the blood serum of a patient having a benign liver disease has an increased α-fetoprotein L1-type sugar chain (AFP-L1). Furthermore, α-fetoprotein L3-type sugar chain (AFP-L3) is detected in a patient of a liver cancer. Conventionally, the difference in a sugar chain has been measured by LCA and the measurement result has been used for the diagnosis of a liver disease.
(§4) PTL of Example 1, SRL of Example 2, AAL of Comparison Example 1, AOL of Comparison Example 2, and the LCA of Comparison Example 3 that were biotin-labeled were used to evaluate the binding property of α-fetoprotein by ELISA.
(§5) 0.1 M carbonic acid buffer solution (pH 9.5) was used to dilute α-fetoprotein (derived from human umbilical cord blood serum, mainly L1-type sugar chain) and α-fetoprotein-L3 (prepared from the culture supernatant of human liver cancer cells) so as to achieve 0.01 μg/ml. Then, the resultant solution was added to a microtiter plate (Nunc) and was incubated at 4 degrees C. one night. After the solution was cleaned by 0.05% Tween/PBS three times, 1% BSA/PBS was added to wells and the solution was incubated at 37 degrees C. for one hour. After the solution was washed by 0.05% Tween/PBS three times, the wells were added with the biotin-labeled lectin solution appropriately diluted by 1% BSA/0.05% Tween/PBS and the solution was incubated at 37 degrees C. for one hour. After the solution was cleaned by 0.05% Tween/PBS three times, HRP labeled streptavidin solution diluted by 1% BSA/0.05% Tween/PBS was added and the solution was incubated at 37 degrees C. for 30 minutes. After the solution was cleaned by 0.05% Tween/PBS three times, TMB Peroxidase substrate system (KPL) was added and the resultant solution was incubated at a room temperature for 10 minutes while light was being blocked. The reaction was stopped by 1 M phosphoric acid. Then, a microplate reader (MPR-A4i, TOSOH CORPORATION) was used to measure the absorbance at 450 nm.
(§6) The absorbance at 450 nm of the plate on which α-fetoprotein and α-fetoprotein-L3 were caused to react with lectin was measured. Based on this value, the reaction value ([absorbance at 450 nm of a well for which glycoprotein was solid-phased to the plate and reacted]−[absorbance at 450 nm of a well for which glycoprotein was not solid-phased to the plate and reacted]) was calculated. Next, for each lectin, the interaction was calculated. Next, the calculation result of the reaction values is shown in Table 10 and FIG. 24 to FIG. 28.

[8] = molecular target: T2, α-fetoprotein-L3; assay: detection of tumor marker sugar chain by ELISA; type: binding; conditions: α-fetoprotein-L3 from culture supernatant of human liver cancer cells, coated at 0.01 μg/ml
Source text: as §3, §4, §5, §6

| Molecule | Minimum hemagglutinating concentration [1] [µg/mL] | hemagglutinating activity, titer (1.0 mg/ml) [1] [titer] | Minimum hemagglutinating concentration [2] [µg/mL] | hemagglutinating activity, titer (1.0 mg/ml) ([2]; lectin 1.0 mg/ml) [titer] | Minimum hemagglutinating concentration [3] [µg/mL] | hemagglutinating activity, titer (1.0 mg/ml) [3] [titer] | Minimum hemagglutinating concentration [4] [µg/mL] | hemagglutinating activity, titer (1.0 mg/ml) [4] [titer] | Minimum hemagglutinating concentration ([5]; Human A erythrocytes) [µg/mL] | hemagglutinating activity, titer (1.0 mg/ml) ([5]; Human A erythrocytes) [titer] | Minimum hemagglutinating concentration ([5]; Human B erythrocytes) [µg/mL] | hemagglutinating activity, titer (1.0 mg/ml) ([5]; Human B erythrocytes) [titer] | Minimum hemagglutinating concentration ([5]; Human O erythrocytes) [µg/mL] | hemagglutinating activity, titer (1.0 mg/ml) ([5]; Human O erythrocytes) [titer] | Minimum hemagglutinating concentration [6] [µg/mL] | hemagglutinating activity, titer (1.0 mg/ml) [6] [titer] | reaction value (absorbance at 450 nm, blank-subtracted) by ELISA [7] | reaction value (absorbance at 450 nm, blank-subtracted) by ELISA [8] |
| --- | --- | --- | --- | --- | --- | --- | --- | --- | --- | --- | --- | --- | --- | --- | --- | --- | --- | --- |
| Stropharia rugosoannulata lectin [SRL, novel L-fucose α1→6 specific lectin purified from the mushroom Stropharia rugosoannulata] | 5.21 | 64 | 2.61 | 128 | 10.4 | 32 | >333 | <1 | >333 | <1 | >333 | <1 | >333 | <1 | 0.651 | 512 | 0.031 | 1.625 |
| Pholiota terrestris lectin [PTL, novel L-fucose α1→6 specific lectin purified from the mushroom Pholiota terrestris] | 5.21 | 64 |  |  | 20.8 | 16 | >333 | <1 | >333 | <1 | >333 | <1 | >333 | <1 | 0.13 | 2560 | 0.039 | 1.548 |
| Aspergillus oryzae lectin [AOL, reference compound] |  |  |  |  |  |  |  |  |  |  |  |  |  |  |  |  | 0.011 | 0.898 |
| B1 |  |  |  |  |  |  |  |  |  |  |  |  |  |  |  |  | −0.049 | 0.795 |
| B2 |  |  |  |  |  |  |  |  |  |  |  |  |  |  |  |  | 0.010 | 0.455 |
